Source: patent US20080274967
Changes are numbered by the printed parent chain.

Tests used:
[1] = system: T1, PEDF S24,114E variant
T1 sequence: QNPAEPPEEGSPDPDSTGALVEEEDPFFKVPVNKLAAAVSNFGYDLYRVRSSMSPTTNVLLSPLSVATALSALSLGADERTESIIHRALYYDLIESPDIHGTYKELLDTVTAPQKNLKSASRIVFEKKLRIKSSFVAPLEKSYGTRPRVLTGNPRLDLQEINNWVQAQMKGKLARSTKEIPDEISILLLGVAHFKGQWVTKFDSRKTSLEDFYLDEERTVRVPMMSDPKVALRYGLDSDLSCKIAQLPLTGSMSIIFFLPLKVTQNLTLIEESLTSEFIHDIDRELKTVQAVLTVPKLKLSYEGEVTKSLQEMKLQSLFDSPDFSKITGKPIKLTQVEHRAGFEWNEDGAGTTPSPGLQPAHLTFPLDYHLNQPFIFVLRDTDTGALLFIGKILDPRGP

[2] = system: T2, PEDF EEE variant (S24,114, 227E)
T2 sequence: T1 sequence with S208E

[3] = system: T3, PEDF EEA variant (S24,114E, 227A)
T3 sequence: T1 sequence with S208A

[4] = system: T4, PEDF AAE variant (S24,114A, 227E)
T4 sequence: T1 sequence with E5A, E95A, S208E

[5] = system: T5, PEDF AAA variant (S24,114, 227A)
T5 sequence: T1 sequence with E5A, E95A, S208A

[6] = system: T6, Recombinant human pigment epithelium derived factor (rPEDF)
T6 sequence: T1 sequence with E5S, E95S

In the case of “Catalytic subunit of protein kinase A (PKA)”, the “in vitro phosphorylation by PKA after brief heat treatment of the variant” value [1] is reported as “a brief heat treatment ... restored its phosphorylation by PKA”, the “in vitro phosphorylation by PKA” value [2] is reported as “none of the triple mutants was phosphorylated by PKA” and the “in vitro phosphorylation by PKA” value [3] is reported as “none of the triple mutants was phosphorylated by PKA”. For the same substance, the “in vitro phosphorylation by PKA” value [4] was “none of the triple mutants was phosphorylated by PKA”, the “in vitro phosphorylation by PKA” value [5] was “none of the triple mutants was phosphorylated by PKA” and the “in vitro phosphorylation by PKA ([γ32P]-ATP, SDS-PAGE, autoradiography)” value [6] was “rPEDF served as a good substrate to PKA”.
